Assays:
[1] = target: T1, rhRIG-I (236-925), CARD-less (Homo sapiens, UniProt O95786 236-925); assay: fluorescence anisotropy; no nucleotide; 4 mM MgCl2; Kd only in figure; FP: 20 mM Hepes pH 7.5, 150 mM NaCl, 2 mM TCEP, 4 mM MgCl2, 5% glycerol, 25 C, 2.5 nM labeled oligo; EMSA: 30 min on ice, 6% native gel, 0.5x TBE; settings: protein: recombinant; tags: N-terminal His-tag, removed by TEV; label: 5' FAM on strand 1; blunt
T1 sequence: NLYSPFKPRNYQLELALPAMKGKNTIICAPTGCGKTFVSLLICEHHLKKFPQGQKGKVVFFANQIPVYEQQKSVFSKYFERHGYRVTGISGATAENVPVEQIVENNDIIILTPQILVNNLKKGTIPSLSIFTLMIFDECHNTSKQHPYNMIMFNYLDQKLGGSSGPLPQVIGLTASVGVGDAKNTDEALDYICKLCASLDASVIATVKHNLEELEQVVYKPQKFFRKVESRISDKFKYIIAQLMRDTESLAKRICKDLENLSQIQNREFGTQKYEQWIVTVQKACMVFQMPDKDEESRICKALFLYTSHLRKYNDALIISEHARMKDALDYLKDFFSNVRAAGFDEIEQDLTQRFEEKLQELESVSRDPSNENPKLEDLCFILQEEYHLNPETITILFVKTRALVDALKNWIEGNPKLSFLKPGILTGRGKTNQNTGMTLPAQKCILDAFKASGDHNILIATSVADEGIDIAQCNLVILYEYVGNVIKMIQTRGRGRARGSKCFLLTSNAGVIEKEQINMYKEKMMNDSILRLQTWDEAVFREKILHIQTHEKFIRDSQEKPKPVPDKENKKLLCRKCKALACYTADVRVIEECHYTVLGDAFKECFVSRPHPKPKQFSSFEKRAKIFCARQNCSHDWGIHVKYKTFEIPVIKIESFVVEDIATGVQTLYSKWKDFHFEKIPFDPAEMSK

[2] = target: T1, rhRIG-I (236-925), CARD-less; assay: fluorescence anisotropy; no nucleotide; 4 mM MgCl2; affinity similar to RNA, Kd only in figure; FP: 20 mM Hepes pH 7.5, 150 mM NaCl, 2 mM TCEP, 4 mM MgCl2, 5% glycerol, 25 C, 2.5 nM labeled oligo; EMSA: 30 min on ice, 6% native gel, 0.5x TBE; settings: protein: recombinant; tags: N-terminal His-tag, removed by TEV; label: 5' FAM; 25-mer described as palindromic; partly self-complementary
[3] = target: T1, rhRIG-I (236-925), CARD-less; assay: EMSA; ODN stock 2.5 uM, protein 0-32 uM, on ice; FP: 20 mM Hepes pH 7.5, 150 mM NaCl, 2 mM TCEP, 4 mM MgCl2, 5% glycerol, 25 C, 2.5 nM labeled oligo; EMSA: 30 min on ice, 6% native gel, 0.5x TBE; settings: protein: recombinant; tags: N-terminal His-tag, removed by TEV; 25-mer described as palindromic; partly self-complementary

B1: 12-mer 5'ppp dsRNA (dsRNA)
RNA 1: CAUGUGGAGCCC
RNA 2: GGGCUCCACAUG
modifications: 5' triphosphate on strand 2
[1]
  binding result: binds

## TCGTCGTCGTTCGAACGACGTTGAT (ssDNA, complete phosphorothioate backbone) [ODN M362, FAM]
[2]
  binding result: binds

## TCGTCGTCGTTCGAACGACGTTGAT (ssDNA, complete phosphorothioate backbone) [ODN M362, biotinylated]
[3]
  binding result: binds
